Laboratory results published in US20040191812, “Target-dependent transcription using deletion mutants of N4 RNA polymerase” (published 2004).
Where a chain is given by its changes, count along the chain named.

T1: N4 mini-vRNAP (His-tagged) (Bacteriophage N4, UniProt Q859P9 SEQ:34-1143)
T1 chain: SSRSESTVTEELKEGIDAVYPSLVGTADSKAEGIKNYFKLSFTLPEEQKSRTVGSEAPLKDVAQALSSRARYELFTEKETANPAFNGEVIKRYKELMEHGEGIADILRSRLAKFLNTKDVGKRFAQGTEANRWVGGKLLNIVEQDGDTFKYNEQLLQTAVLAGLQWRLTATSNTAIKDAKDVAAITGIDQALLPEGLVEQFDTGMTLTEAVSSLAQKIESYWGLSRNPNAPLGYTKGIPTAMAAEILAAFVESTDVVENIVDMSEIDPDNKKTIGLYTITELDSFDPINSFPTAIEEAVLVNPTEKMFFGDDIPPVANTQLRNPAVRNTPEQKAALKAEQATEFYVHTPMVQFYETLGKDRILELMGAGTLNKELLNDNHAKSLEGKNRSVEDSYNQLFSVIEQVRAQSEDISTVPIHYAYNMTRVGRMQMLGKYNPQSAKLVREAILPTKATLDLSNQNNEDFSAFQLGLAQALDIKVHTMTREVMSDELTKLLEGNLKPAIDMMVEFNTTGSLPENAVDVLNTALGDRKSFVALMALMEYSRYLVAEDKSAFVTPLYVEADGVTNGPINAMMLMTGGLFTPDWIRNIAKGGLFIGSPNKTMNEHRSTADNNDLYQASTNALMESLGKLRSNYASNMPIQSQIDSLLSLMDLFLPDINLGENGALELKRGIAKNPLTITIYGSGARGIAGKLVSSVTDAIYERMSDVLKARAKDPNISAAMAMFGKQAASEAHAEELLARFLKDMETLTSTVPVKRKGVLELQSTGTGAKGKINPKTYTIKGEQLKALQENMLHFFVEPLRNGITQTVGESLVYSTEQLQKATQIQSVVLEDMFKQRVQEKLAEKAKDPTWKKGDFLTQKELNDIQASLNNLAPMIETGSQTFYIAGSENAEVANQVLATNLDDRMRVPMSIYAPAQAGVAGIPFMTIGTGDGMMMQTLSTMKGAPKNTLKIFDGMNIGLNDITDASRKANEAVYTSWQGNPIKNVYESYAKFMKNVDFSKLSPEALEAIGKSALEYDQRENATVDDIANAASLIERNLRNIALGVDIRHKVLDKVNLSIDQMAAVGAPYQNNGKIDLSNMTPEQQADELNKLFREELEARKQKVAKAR

T2: N4 mini-vRNAP Y678F (Bacteriophage N4, UniProt Q859P9 SEQ:34-1143)
T2 chain: T1 chain with Y682F

B1: P2 5-IdU at +1 (ssDNA)
DNA: TCTAAAAGAAGCGGAGCTTC
modifications: 5-iodo-dU at +1 [3 (5-iodo-dU, promoter position +1)]
B2: P2 5-IdU at +2 (ssDNA)
DNA: TTCAAAAGAAGCGGAGCTTC
modifications: 5-iodo-dU at +2 [2 (5-iodo-dU, promoter position +2)]
B3: P2 5-IdU at +3 (ssDNA)
DNA: TCCAAAAGAAGCGGAGCTTC
modifications: 5-iodo-dU at +3 [1 (5-iodo-dU, promoter position +3)]
B4: P2 5-IdU at -11 (ssDNA)
DNA: TCCAAAAGAAGCGTAGCTTC
modifications: 5-iodo-dU at -11 [14 (5-iodo-dU, promoter position -11)]

What was measured:
[1] = target: N4 mini-vRNAP K670A K670A (mini-vRNAP numbering) (Bacteriophage N4) (UniProt Q859P9); experiment: filter; settings: wild-type affinity; method inferred
[2] = target: T1, N4 mini-vRNAP (His-tagged); experiment: filter; wild-type affinity; UV crosslinks; settings: tags: N-terminal hexahistidine (pBAD); label: 32P end-label; hairpin
Excerpt: To study the sequence determinants of promoter binding, 20 base-long promoter oligonucleotides, containing the wild-type vRNAP promoter P2 sequence and substituted at every position with a single 5-Iodo-dU, were used. Whenever substitutions were made in the stem, the corresponding pairing base was changed to A. These oligonucleotides were ³²P end-labeled and used to determine the enzyme's affinity for promoter DNAs by a filter binding assay and the ability to crosslink to mini-vRNAP upon UV irradiation at 320 nm.

N4 mini-vRNAP Y678F = target: T2, N4 mini-vRNAP Y678F; experiment: UV crosslinking as well as wild type; settings: tags: N-terminal hexahistidine (pBAD); label: 32P end-label; hairpin

Molecule	binding signal (fold of wild type) [1]	binding result [2]	binding result (N4 mini-vRNAP Y678F)
TCCAAAAGAAGCGGAGCTTC [P2 wild-type 20-mer promoter oligo]	1		
B1		binds	
B2		binds	
B3		binds	binds
B4			binds
